Test results: patent US20080146500A1, “Selective Vpac2 Receptor Peptide Agonists” (priority 2004, published 2008)
Ends that are not written are not given here. * marks the point of attachment. Hexanoyl = CCCCCC(=O)*

B1: P190 (peptide)
peptide: Hexanoyl-HSDAVFTDNYTRLLAKLALQKYLQSIKNKRYGGPSSGAPPPC(PEG 40 kDa)
notes: T0013 drops Thr 11 (print error); also called PEGylated P164

Tests used:
[1] = test system: Normal Wistar rats; assay: Intravenous glucose tolerance test (IVGTT), serum glucose and insulin; assay type: in vivo, rat; details: Dose = 10 μg/kg iv, time between glucose & compound 0 h
Protocol: Intravenous glucose tolerance test (IVGTT): Normal Wistar rats are fasted overnight and are anesthetized prior to the experiment. A blood sampling catheter is inserted into the rats. The compound is given in the jugular vein. Blood samples are taken from the carotid artery. A blood sample is drawn immediately prior to the injection of glucose along with the compound. After the initial blood sample, glucose mixed with compound is injected intravenously (i.v.). Compound may also be injected intravenously or subcutaneously prior to the glucose challenge. A glucose challenge of 0.5 g/kg body weight is given, injecting a total of 1.5 mL vehicle with glucose and agonist per kg body weight. The peptide concentrations are varied to produce the desired dose in μg/kg. Blood samples are drawn at 2, 4, 6 and 10 minutes after giving glucose. The control group of animals receives the same vehicle along with glucose, but with no compound added. In some instances, a 30 minute post-glucose blood sample is drawn. Aprotinin is added to the blood sample (250-500 kIU/ml blood). The serum is then analyzed for glucose and insulin using standard methodologies.
The assay uses a formulated and calibrated peptide stock in PBS. Normally, this stock is a prediluted 100 μM stock. However, a more concentrated stock with approximately 1 mg agonist per 1 mL is used. The specific concentration is always known. Variability in the maximal response is mostly due to variability in the vehicle dose.

[2] = biological target: T1, human PAC1 (Homo sapiens, UniProt P41586); assay: Filter binding assay, membranes from cells transiently transfected with human PAC1, 125I-labeled PACAP-27 tracer; details: read-out: Human receptor binding (IC50; nM) PAC1
T1 construct: expressed in transfected cells
T1 sequence (P41586 21-468): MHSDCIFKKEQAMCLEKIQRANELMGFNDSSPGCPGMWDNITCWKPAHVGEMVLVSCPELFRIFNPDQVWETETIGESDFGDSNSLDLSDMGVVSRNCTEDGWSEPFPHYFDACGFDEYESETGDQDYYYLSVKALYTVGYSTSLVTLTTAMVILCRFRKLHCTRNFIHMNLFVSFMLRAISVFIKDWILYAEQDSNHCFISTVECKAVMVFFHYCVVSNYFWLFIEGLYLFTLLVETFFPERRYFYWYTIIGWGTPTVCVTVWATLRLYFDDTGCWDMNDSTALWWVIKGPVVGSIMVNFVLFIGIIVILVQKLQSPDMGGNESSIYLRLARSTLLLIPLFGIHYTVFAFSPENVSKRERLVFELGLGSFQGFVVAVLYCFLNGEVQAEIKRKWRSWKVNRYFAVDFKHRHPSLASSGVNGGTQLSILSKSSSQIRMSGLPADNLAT
Protocol: (§1) For this assay, the solutions and equipment include:
(§2) Presoak solution: 0.5% Polyethyleneamine in Aqua dest.
(§3) Buffer for flushing filter plates: 25 mM HEPES pH 7.4
(§4) Blocking buffer: 25 mM HEPES pH 7.4; 0.2% protease free BSA
(§5) Assay buffer: 25 mM HEPES pH 7.4; 0.5% protease free BSA
(§6) Dilution and assay plate: PS-Microplate, U form
(§7) Filtration Plate Multiscreen FB Opaque Plate; […] Type B Glasfiber filter
(§8) In order to prepare the filter plates, the presoak solution is aspirated by vacuum filtration. The plates are flushed twice with 200 μL flush buffer. 200 μL blocking buffer is added to the filter plate. The filter plate is then incubated with 200 μL presoak solution for 1 hour at room temperature.
(§9) The assay plate is filled with […] (2.5 μg) suspended in assay buffer, 25 μL compound (agonist) in assay buffer, and 25 μL tracer (about 40000 cpm) in assay buffer. The filled plate is incubated for 1 hour with shaking.
(§10) The transfer from assay plate to filter plate is conducted. The blocking buffer is aspirated by vacuum filtration and washed two times with flush buffer. 90 μL is transferred from the assay plate to the filter plate. The 90 μL transferred from assay plate is aspirated and washed three times with 200 μL flush buffer. The plastic support is removed. It is dried for 1 hour at 60° C. 30 μL Microscint is added. The count is performed.
(§11) Values reported are single results or the mean of two or more independent runs.

[3] = biological target: T2, human VPAC1 (Homo sapiens, UniProt P32241); assay: Filter binding assay, membranes from cells transiently transfected with human VPAC1, 125I-labeled VIP tracer; details: read-out: Human receptor binding (IC50; nM) VPAC1
T2 construct: expressed in transfected cells
T2 sequence (P32241 31-457): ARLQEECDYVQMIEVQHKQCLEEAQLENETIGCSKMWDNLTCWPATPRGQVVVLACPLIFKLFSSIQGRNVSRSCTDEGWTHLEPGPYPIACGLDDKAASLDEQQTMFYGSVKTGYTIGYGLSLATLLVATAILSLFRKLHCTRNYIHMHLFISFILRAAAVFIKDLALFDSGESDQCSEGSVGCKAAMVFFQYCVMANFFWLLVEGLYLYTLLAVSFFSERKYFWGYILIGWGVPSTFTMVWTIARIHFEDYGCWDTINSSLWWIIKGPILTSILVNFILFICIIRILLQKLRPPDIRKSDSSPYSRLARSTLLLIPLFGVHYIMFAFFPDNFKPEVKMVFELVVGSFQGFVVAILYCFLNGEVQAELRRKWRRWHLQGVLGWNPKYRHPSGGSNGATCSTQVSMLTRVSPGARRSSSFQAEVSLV
Protocol: as §1, §2, §3, §4, §5, §6, §7, §8, §9, §10, §11

[4] = biological target: T3, human VPAC2 receptor (human), P41587; assay: filter binding, VPAC2 membranes, 125I-VIP tracer
T3 chain: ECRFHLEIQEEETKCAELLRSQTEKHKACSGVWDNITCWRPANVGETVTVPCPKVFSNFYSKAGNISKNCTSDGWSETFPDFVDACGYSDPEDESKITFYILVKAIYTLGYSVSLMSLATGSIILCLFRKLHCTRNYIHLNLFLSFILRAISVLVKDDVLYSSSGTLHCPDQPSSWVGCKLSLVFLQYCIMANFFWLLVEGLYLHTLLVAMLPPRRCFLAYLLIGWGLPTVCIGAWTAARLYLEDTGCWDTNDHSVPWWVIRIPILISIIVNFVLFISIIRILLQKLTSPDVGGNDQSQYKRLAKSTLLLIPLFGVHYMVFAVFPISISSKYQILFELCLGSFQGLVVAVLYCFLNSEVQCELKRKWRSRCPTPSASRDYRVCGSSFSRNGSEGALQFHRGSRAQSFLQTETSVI

[5] = biological target: T4, human VPAC1 receptor (human), P32241; assay: filter binding, VPAC1 membranes, 125I-VIP tracer
T4 chain: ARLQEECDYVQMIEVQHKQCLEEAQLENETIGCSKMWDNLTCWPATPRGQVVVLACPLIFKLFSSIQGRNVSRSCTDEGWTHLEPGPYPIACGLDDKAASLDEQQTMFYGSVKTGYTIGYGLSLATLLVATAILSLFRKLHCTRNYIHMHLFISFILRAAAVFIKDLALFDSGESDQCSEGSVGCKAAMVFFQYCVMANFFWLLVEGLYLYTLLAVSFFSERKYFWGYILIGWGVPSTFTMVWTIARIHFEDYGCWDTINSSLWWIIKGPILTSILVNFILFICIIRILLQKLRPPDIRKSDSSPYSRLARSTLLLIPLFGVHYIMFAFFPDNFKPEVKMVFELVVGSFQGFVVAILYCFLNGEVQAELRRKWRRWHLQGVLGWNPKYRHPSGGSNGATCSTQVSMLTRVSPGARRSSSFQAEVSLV

[6] = biological target: T5, rat VPAC1 receptor (rat), P30083; assay: cell-based or functional assay
T5 chain: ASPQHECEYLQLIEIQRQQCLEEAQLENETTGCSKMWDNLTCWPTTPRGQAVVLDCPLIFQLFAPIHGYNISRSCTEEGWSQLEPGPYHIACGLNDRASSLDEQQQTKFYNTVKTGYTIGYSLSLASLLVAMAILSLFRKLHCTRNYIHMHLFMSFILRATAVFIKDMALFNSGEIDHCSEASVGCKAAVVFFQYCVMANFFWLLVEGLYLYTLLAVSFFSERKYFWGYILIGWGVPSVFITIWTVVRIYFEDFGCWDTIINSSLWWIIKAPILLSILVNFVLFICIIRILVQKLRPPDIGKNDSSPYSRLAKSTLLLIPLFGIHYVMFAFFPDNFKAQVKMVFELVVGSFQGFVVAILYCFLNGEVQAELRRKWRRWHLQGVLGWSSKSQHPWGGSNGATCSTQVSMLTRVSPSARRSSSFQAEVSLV

[7] = biological target: T3, human VPAC2 receptor (human), P41587; assay: cell-based or functional assay
[8] = biological target: T6, rat VPAC2 receptor (rat), P35000; assay: cell-based or functional assay
T6 chain: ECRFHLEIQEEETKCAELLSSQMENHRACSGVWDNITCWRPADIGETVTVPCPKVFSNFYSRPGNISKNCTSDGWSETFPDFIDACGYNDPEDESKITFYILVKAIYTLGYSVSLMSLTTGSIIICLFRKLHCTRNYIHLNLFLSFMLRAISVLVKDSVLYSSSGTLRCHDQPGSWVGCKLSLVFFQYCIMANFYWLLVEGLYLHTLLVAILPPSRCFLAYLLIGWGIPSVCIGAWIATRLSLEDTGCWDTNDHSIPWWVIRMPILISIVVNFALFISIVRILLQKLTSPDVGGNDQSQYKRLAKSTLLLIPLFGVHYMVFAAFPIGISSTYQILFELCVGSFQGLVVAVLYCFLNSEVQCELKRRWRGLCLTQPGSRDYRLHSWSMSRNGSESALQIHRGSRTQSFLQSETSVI

[9] = biological target: T7, human VPAC2 receptor (human, UniProt P41587 24-438); assay: cell-based or functional assay
T7 sequence (looked up): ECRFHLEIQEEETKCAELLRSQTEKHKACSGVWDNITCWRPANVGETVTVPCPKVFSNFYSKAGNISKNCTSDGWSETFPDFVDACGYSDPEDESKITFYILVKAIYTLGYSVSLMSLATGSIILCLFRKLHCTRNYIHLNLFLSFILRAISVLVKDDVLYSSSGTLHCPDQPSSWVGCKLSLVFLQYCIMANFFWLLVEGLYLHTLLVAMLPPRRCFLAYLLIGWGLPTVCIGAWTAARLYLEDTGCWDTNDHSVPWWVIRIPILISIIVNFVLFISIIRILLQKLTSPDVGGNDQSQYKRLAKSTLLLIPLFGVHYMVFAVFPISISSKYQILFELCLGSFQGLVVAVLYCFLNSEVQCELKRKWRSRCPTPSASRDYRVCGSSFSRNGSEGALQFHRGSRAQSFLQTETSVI

[10] = biological target: T7, human VPAC2 receptor; assay: filter binding, VPAC2 membranes, 125I-VIP tracer
Protocol: The assay plate is filled with 25 mL assay buffer, 25 mL membranes (2.5 μg) suspended in assay buffer, 25 μL compound (agonist) in assay buffer, and 25 μL tracer (about 40000 cpm) in assay buffer. The filled plate is incubated for 1 hour with shaking.

Molecule | IC50 [4] | cAMP generation (EC50), Alpha screen [7] | further results
C6-HSDAVFTDNYTRLLAKLALQKYLQSIKNKRYGGPSSGAPPPC(PEG40K) (Hexanoyl-HSDAVFTDNYTRLLAKLALQKYLQSIKNKRYGGPSSGAPPPC(PEG 40 kDa)) [Agonist P190, PEGylated peptide obtained from P164 and methoxy-PEG2-MAL-40K] | – | – | % increase AUC (insulin, 0-10 min after glucose) [1]: +73%; IC50 [2]: > 25000 nM; IC50 [3]: > 3000 nM
HSDAVFTDNYTRLRKQVAAKKYLQSIKNKRYGGPSSGAPPPC (modifications not checked) [P137] | 0.64 nM | 8.31 nM | IC50 [5]: 853 nM; cAMP generation (EC50), DiscoveRx, CHO-PO cells [6]: 29.7 nM; cAMP generation (EC50), DiscoveRx, CHO-PO cells [8]: 8 nM
HSDAVFTDNYTRLRRQVAAKRYLQSIRNGGPSSGAPPPS (modifications not checked) [P219] | 67.9 nM | 25.5 nM | –
HSDAVFTDNYTRLRKQVAARRYLQSIRNGGPSSGAPPPS (modifications not checked) [P245] | 921 nM | 450 nM | –
HSDAVFTDNYTRLRRQVAARKYLQSIRNGGPSSGAPPPS (modifications not checked) [P247] | 353 nM | 133 nM | –
B1 | – | – | cAMP generation (EC50), Alpha screen [9]: 2.14 nM; IC50 [10]: 4.44 nM
